The results in this text go back to FireProtDB (doi:10.1007/s10930-015-9600-7).

B1: Carboxymethylenebutenolidase, P0A115 (parent)
chain: MLTEGISIQSYDGHTFGALVGSPAKAPAPVIVIAQEIFGVNAFMRETVSWLVDQGYAAVCPDLYARQAPGTALDPQDERQREQAYKLWQAFDMEAGVGDLEAAIRYARHQPYSNGKVGLVGYCLGGALAFLVAAKGYVDRAVGYYGVGLEKQLKKVPEVKHPALFHMGGQDHFVPAPSRQLITEGFGANPLLQVHWYEEAGHSFARTSSSGYVASAAALANERRLDFLAPLQSKKP

This data set covers variants of B1. To be noted: Pseudomonas knackmussii (strain DSM 6978 / CCUG 54928 / LMG 23759 / B13), pH 7.5, Thermal, Hepes 50 mM, structure 4U2B, whole UniProt chain shown.

As to Q110L K154D, the Tm is, setting by setting: (Activity, NaCl 75 mM) 54.2 °C; (fluorescence) 54.8 °C. Further, the “change of melting temperature, mutant - wild type (higher = more stable)” value (shortened to “change of melting temperature, mutant”) is 3.1 °C (Activity, NaCl 75 mM) and 3.3 °C (fluorescence).

On to K154D, for which, for the setting “Activity, NaCl 75 mM”, the Tm worked out at 53.9 °C and the “change of melting temperature, mutant” value was 2.7 °C. Besides, where the note is “fluorescence”, the Tm was found to be 54.4 °C and the “change of melting temperature, mutant” value amounted to 2.9 °C.

Regarding Y137C, the Tm was 49.3 °C (Activity, NaCl 75 mM) and 50.8 °C (fluorescence). Further, the “change of melting temperature, mutant” value runs as follows: (Activity, NaCl 75 mM) -1.9 °C; (fluorescence) -0.7 °C.
